From the supplement of paper PMC12338614

B1: library; numbered along this chain (parent)
chain: MEVVDPQQLGMFTEGELMSVGMDTFIHRIDSTEVIYQPRRKRAKLIGKYLMGDLLGEGSYGKVKEVLDSETLCRRAVKILKKKKLRRIPNGEANVKKEIQLLRRLRHKNVIQLVDVLYNEEKQKMYMVMEYCVCGMQEMLDSVPEKRFPVCQAHGYFCQLIDGLEYLHSQGIVHKDIKPGNLLLTTGGTLKISDLGVAEALHPFAADDTCRTSQGSPAFQPPEIANGLDTFSGFKVDIWSAGVTLYNITTGLYPFEGDNIYKLFENIGKGSYAIPGDCGPPLSDLLKGMLEYEPAKRFSIRQIRQHSWFRKKHPPAEAPVPIPPSPDTKDRWRSMTVVPYLEDLHGADEDEDLFDIEDDIIYTQDFTVPGQVPEEEASHNGQRRGLPKAVCMNGTEAAQLSTKSRAEGRAPNPARKACSASSKIRRLSACKQQ

Variants of: B1
Assay: STK11 functional score (HeLa growth suppression), rescaled enrichment; synonymous median = 1, nonsense median = 0 (normalised score)
Conditions: with HeLa; variant type: missense
Procedure, shortened: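 Codon-randomised (POPCode) libraries of codon-optimised STK11 were integrated by Bxb1 at an AAVS1 landing pad in HeLa, in three regions each transfected three times. Integrants (BFP-negative, mCherry-positive) were FACS-sorted 4–5 days after electroporation and grown about two weeks; tiled gDNA amplicons were sequenced on NextSeq (~2 million reads per tile). The functional score is the wild-type-corrected post/pre-selection log ratio, rescaled to synonymous and nonsense medians, merged over codons and replicate transfections, with bootstrapped error.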

STK11 functional score of substitutions, site by site:
V150: Q 0.265 | H 1.26 | C 0.762 | P 0.992 | W 0.631 | A 0.104 | G 0.594 | R 1.17 | S 0.347 | K 1.36 | T 0.385 | L 0.401
L160: V 1.26 | A 1.07 | P -0.129 | Q 0.000621 | H 0.212 | G -0.0371 | W 0.0949 | I 1.17 | R -0.13 | S 0.508 | F 0.36 | E 0.305
H174: L 0.234 | P 0.0698 | F 0.138 | K 0.153 | A 0.322 | C 0.891 | T 1.63 | W 1.02 | S 0.695 | Y 1.11 | I 0.662 | V 0.69 | G 0.326 | N 0.317
Q170: T 0.156 | C 1.51 | M 1.54 | L 0.967 | H 0.738 | G 1.37 | V 1.26 | K 0.664 | R 1.16 | P 0.0405 | D -0.0762 | W 1.17 | F 0.834 | A 0.916 | E 0.234 | S 0.916
G155: R 0.742 | A 1.27
A153: F 0.0706 | M -0.195 | W -0.261 | P -0.338 | L 0.0918 | I 0.28 | D -0.157 | E 0.243 | V 0.499 | G 1.13 | R 0.204 | Y -0.0988
F157: G -0.101 | L 0.19 | M 0.503 | V -0.0226 | W 0.714
Y156: Q 0.148 | W 0.28 | I 1.04 | C 0.324 | S 0.762 | G 0.044 | V 1.06 | D 0.293 | E 1.15 | T 1.13 | F 1.27 | A 0.114 | P 0.418 | L 1.34 | M 1.69
F148: S -0.139 | Y 0.892 | Q 0.0904 | W 0.336 | T -0.101 | V 0.674 | R -0.0906
I172: L 0.71 | V 1.21 | G 0.806 | M 0.35 | S 0.549 | R 0.401 | A 1.02 | W 0.519 | P -0.291 | F 0.904 | N 0.174
H154: N 0.196 | I 0.492 | V 0.314 | W 0.87 | F 0.39 | Y 1.26 | L 0.189 | G 0.183 | S 0.47 | A 1.49 | M 0.597 | R 0.997 | P -0.204
V173: L 0.137 | I 1.52 | P 0.128 | R 0.37 | G 1.15 | W 0.343 | Q 1.46 | C 0.883 | H 0.45 | A 0.314 | F 0.953 | Y 1.04 | S 1.23
Q159: I 0.332 | C 0.889 | G 1.1 | A 1.13 | E 1.25 | R 1.03 | W 0.972 | D 1.12 | Y 1.03 | M 1.14 | N 0.806 | L 0.623 | V 0.324 | H 0.00983 | P 0.757 | K 0.6 | S 0.691
S169: H 1.43 | L 0.7 | P 0.391 | T 1.22 | G 1.29 | A 1.09 | I 0.231 | R 0.882 | Y 1.54 | W 1.25 | V 0.428
L164: V 0.774 | S 0.135 | P -0.0524 | C 1.21 | R -0.302 | T 0.864 | F -0.208 | W 0.051 | N 0.0402 | G -0.142 | I 1.16 | H 0.0804
L167: S 0.241 | F 1.05 | V 1.15 | E -0.113 | K 0.0279 | H -0.00514 | P 0.104 | N 0.605 | C 1.13 | R -0.0722 | I 1.44 | W -0.183 | Y 0.387 | G 0.121 | D -0.162 | A 0.629
G163: A 1.05 | H -0.383 | Y -0.0827 | W 0.91 | F -0.122 | E -0.0159 | R 0.0418 | V 0.0343 | T 0.008 | S 0.402 | L 0.386 | C 0.245 | P -0.013
Q152: E 0.844 | P 0.0642 | V 1.19 | C 1.26 | L 0.195 | S 0.733
C151: R 1.07 | Y 1.45 | A 1.4 | K 1.67 | W 0.903 | T 0.991 | P 0.45 | N 0.808 | I 0.722 | G 0.587 | H 0.883 | E 0.756 | V 1.17 | L 0.508 | S 1.13 | M 0.331 | Q 1.54
Y166: I 1.21 | G 1.23 | T 1.11 | S 0.964 | F 1.05 | C 0.804 | W 0.846 | D -0.0245 | A 1.47 | K 1.56 | V 1.14 | P 0.994 | M 0.651 | L 0.75
P149: A 1.18 | Y -0.0036 | N 1.38 | C 0.957 | V 0.694 | D 0.598 | G 0.926 | S 0.988 | I 0.249 | M 1.02 | E 1.52 | L 0.561 | W 0.608 | R 0.413
C158: A 1.37 | G 0.418 | V 0.897 | H 1.53 | W 0.384 | M -0.0261 | S 0.627 | L 0.856 | R 1.49 | I 1.51
D162: I 1.05 | R 1.55 | H 0.6 | S 1.26 | L 1.04 | C 1.28 | V 1.17 | F 1.15 | W 1.6 | A 0.819 | E 0.171 | M 1.62 | T 1.4
G171: A 1.18 | S 1.41 | C 0.479 | R 1.24 | V 1.25 | L 1.43 | I 1.46 | N 1.69 | W 1.53
E165: R 1.18 | V 0.465 | Q 0.995 | K 0.973 | T 0.129 | L 0.448 | M 0.0982 | W 0.516 | S 1.39 | Y 1.24 | G 0.569
K175: N 0.914 | L 1.11 | F 0.988 | I 0.589 | G 0.847 | A 0.904
I161: D -0.303 | N 0.158 | M 1.31 | H -0.2 | V 0.514 | F -0.101 | Y 0.129 | T 1.31 | G 0.264 | L 0.912 | S -0.0934 | R -0.0321 | P 0.918 | W -0.296 | C 1.03 | E -0.456
H168: V 0.473 | M 0.519 | P 0.0717 | C 0.168 | R 0.838 | S 0.83 | A 1.25 | F 0.851 | Y 0.357 | D 0.0708 | I 0.159 | W 0.545 | Q 0.947 | N 0.275 | G 0.533 | L 0.263 | E 1.3
